Experimental data taken from patent US20220042033A1, “COMPOSITION AND METHOD FOR CONFERRING AND/OR ENHANCING TOLERANCE AGAINST HERBICIDES BY USING VARIANTS OF PPO” (FarmHannong Co., Ltd., priority 2017, published 2022).
Where a chain is given by its changes, count along the chain named. In names and notes the source's numbering stands.

B1: A170C + I311M + L332T + M365I: MxPPO (SEQ ID NO: 3) variant (protein)
chain: MHHMPRTTGMNVAVVGGGISGLAVAHHLRSRGTDAVLLESSARLGGAVGTHALAGYLVEQGPNSFLDREPATRALAAALNLEGRIRAADPAAKRRYVYTRGRLRSVPASPPAFLASDILPLGARLRVAGELFSRRAPEGVDESLAAFGRRHLGHRATQVLLDAVQTGIYCGDVEQLSVAATFPMLVKMEREHRSLILGAIRAQKAQRQAALPAGTAPKLSGALSTFDGGLQVLIDALAASLGDAAHVGARVEGLAREDGGWRLIIEEHGRRAELSVAQVVLAAPAHATAKLLRPLDDALAALVAGIAYAPMAVVHLGFDAGTLPAPDGFGFTVPAEEQRRMLGAIHASTTFPFRAEGGRVLYSCIVGGARQPGLVEQDEDALAALAREELKALAGVTARPSFTRVFRWPLGIPQYNLGHLERVAAIDAALQRLPGLHLIGNAYKGVGLNDCIRNAAQLADALVAGNTSHAP
modifications: Synthetic (Protoporphyrinogen IX oxidase (MxPPO) of Myxococcus xanthus)
B2: R95A + I168C + L332T + M365I: MxPPO (SEQ ID NO: 3) variant (protein)
chain: B1 chain with R95A, I168C, C170A, M311I
modifications: Synthetic (Protoporphyrinogen IX oxidase (MxPPO) of Myxococcus xanthus)
B3: R95A + I168C + I311M + L332T + M365V: MxPPO (SEQ ID NO: 3) variant (protein)
chain: B1 chain with R95A, I168C, C170A, I365V
modifications: Synthetic (Protoporphyrinogen IX oxidase (MxPPO) of Myxococcus xanthus)
B4: R95A + I168C + I311M + M365V: MxPPO (SEQ ID NO: 3) variant (protein)
chain: B1 chain with R95A, I168C, C170A, T332L, I365V
modifications: Synthetic (Protoporphyrinogen IX oxidase (MxPPO) of Myxococcus xanthus)
B5: R95A + I168C + A170C + I311M + M365V: MxPPO (SEQ ID NO: 3) variant (protein)
chain: B1 chain with R95A, I168C, T332L, I365V
modifications: Synthetic (Protoporphyrinogen IX oxidase (MxPPO) of Myxococcus xanthus)
B6: R95A + A170C + I311M + M365V: MxPPO (SEQ ID NO: 3) variant (protein)
chain: B1 chain with R95A, T332L, I365V
modifications: Synthetic (Protoporphyrinogen IX oxidase (MxPPO) of Myxococcus xanthus)
B7: R95A + I168C + A170C + I311M + L332T + M365V: MxPPO (SEQ ID NO: 3) variant (protein)
chain: B1 chain with R95A, I168C, I365V
modifications: Synthetic (Protoporphyrinogen IX oxidase (MxPPO) of Myxococcus xanthus)
B8: R95A + I168C + A170C + L332T + M365I: MxPPO (SEQ ID NO: 3) variant (protein)
chain: B1 chain with R95A, I168C, M311I
modifications: Synthetic (Protoporphyrinogen IX oxidase (MxPPO) of Myxococcus xanthus)
B9: I168C + A170C + I311M + L332T + M365V: MxPPO (SEQ ID NO: 3) variant (protein)
chain: B1 chain with I168C, I365V
modifications: Synthetic (Protoporphyrinogen IX oxidase (MxPPO) of Myxococcus xanthus)
B10: F209A: ApPPO1 (SEQ ID NO: 1) variant (protein)
chain: MPFTHLKPLNRLLGSPRARHPHVAPQAVSVTNTSTTRPGGRSSAPGIPGDAEYDVVIVGAGISGLTTAQALAKQYSDAVPRLLVTEARDCVGGNIITRRDGGYQWEEGPNSFQPSDAVLRAAVDAGVADRLVLGDPKAPRYVYWGGRLRATPSGPDVLTFDLLSLWGKLRAGLGAAGFKAPLPEREESVKEFVTRNLGEEVFQRLIEPACSGVYAGDPAKLSMKAAFGKVYDLEKGGGSIVGGVLALMKARKQKPPEPRPADLPPKPKGQTVGSFDKGLVTLPSAIAEELGDRVVTGWKLESIDRSGDRFQLTYDTPQGRKKVSARSVALTVPAYTAASLLESRFPKLGKALSSIYYPPVASVALSYPETAILPERLGSDGHLAGFGQLHPRTQGVTTLGTIYASSLFPGRVPEGKVLLLSYFGGATNTRVATMPHGEIVSQVDKDLRKMLIRSDAESPHTVNVTVWPRAIPQFNVGHTDLIQEAKDDLASQGWQGLHLGGNYVAGVALGKCMEAGYKQAAELASHVKSLAT
modifications: Synthetic (Protoporphyrinogen IX oxidase (ApPPO1) of Auxenochlorella protothecoides)
B11: V213C: ApPPO1 (SEQ ID NO: 1) variant (protein)
chain: B10 chain with A209F, V213C
modifications: Synthetic (Protoporphyrinogen IX oxidase (ApPPO1) of Auxenochlorella protothecoides)
B12: V360M: ApPPO1 (SEQ ID NO: 1) variant (protein)
chain: B10 chain with A209F, V360M
modifications: Synthetic (Protoporphyrinogen IX oxidase (ApPPO1) of Auxenochlorella protothecoides)
B13: F386V: ApPPO1 (SEQ ID NO: 1) variant (protein)
chain: B10 chain with A209F, F386V
modifications: Synthetic (Protoporphyrinogen IX oxidase (ApPPO1) of Auxenochlorella protothecoides)
B14: A215C: ApPPO1 (SEQ ID NO: 1) variant (protein)
chain: B10 chain with A209F, A215C
modifications: Synthetic (Protoporphyrinogen IX oxidase (ApPPO1) of Auxenochlorella protothecoides)
B15: L389T: ApPPO1 (SEQ ID NO: 1) variant (protein)
chain: B10 chain with A209F, L389T
modifications: Synthetic (Protoporphyrinogen IX oxidase (ApPPO1) of Auxenochlorella protothecoides)

These molecules were tested on MxPPO (assay: Herbicide tolerance test of MxPPO wild type and variants in PPO-deficient E. coli BT3(ΔPPO), growth on herbicide-containing LB agar). Settings: relative to MxPPO WT, dark, up to 1000 μM (FIGS. 21-22).
Assay type: cell-based, Myxococcus xanthus
Method: Then, the extent of tolerance was evaluated.

Molecule	Herbicide tolerance, flumioxazin
B1	+ (1-9 fold higher tolerance)
B2	+ (1-9 fold higher tolerance)
B3	+ (1-9 fold higher tolerance)
B4	+ (1-9 fold higher tolerance)
B5	+ (1-9 fold higher tolerance)
B6	+ (1-9 fold higher tolerance)
B7	+ (1-9 fold higher tolerance)
B8	+ (1-9 fold higher tolerance)
B9	+ (1-9 fold higher tolerance)

Same assay, conditions: relative to MxPPO WT, dark, up to 4000 μM (FIGS. 23-24)

Molecule	Herbicide tolerance, sulfentrazone
B2	++ (10-99 fold higher tolerance)
B3	+++ (100-999 fold higher tolerance)
B4	+++ (100-999 fold higher tolerance)
B5	+++ (100-999 fold higher tolerance)
B6	+ (1-9 fold higher tolerance)
B7	+++ (100-999 fold higher tolerance)
B8	+++ (100-999 fold higher tolerance)
B9	++ (10-99 fold higher tolerance)

The molecules below were run on ApPPO1 (assay: PPO enzyme activity of purified MBP-fused ApPPO1 wild type and variants). Settings: PPO enzyme activity relative to ApPPO1 wild type; MBP-fused protein.
Assay type: biochemical, Auxenochlorella protothecoides
Method: Thus, PPO proteins of wild type and variants were expressed as fused to MBP and were used for experiments.
The following process for purification of PPO protein was performed in a 4° C. cold room. […] The column was washed with 3 column volumes of buffer and the presence of protein in the washing solution was examined. When the protein was no longer detected, the washing procedure was terminated. Then, the MBP-PPO protein was eluted with approximately 2 column volumes of buffer containing 20 mM maltose. The protein concentration of each eluent was determined and the elution was stopped when the protein was no longer detected. Ten microliter of each fraction was investigated for protein quantification and SDS-PAGE analysis. The highly pure fractions of PPO protein variants were used for the enzyme assay.
Since protoporphyrinogen IX, a substrate of PPO protein, was not commercially available, it was chemically synthesized in the laboratory. Overall process was performed in dark under nitrogen stream. […] of protoporphyrin IX was dissolved in 20 ml of 20% (v/v) EtOH, and stirred under dark condition for 30 minutes. The obtained protoporphyrin IX solution was put into a 15 ml screw tube in an amount of 800 μl, and flushed with nitrogen gas for 5 minutes. To this, 1.5 g of sodium amalgam was added and vigorously shaken for 2 minutes. The lid was opened to exhaust hydrogen gas in the tube. Thereafter, the lid was closed and incubated for 3 minutes. The protoporphyrinogen IX solution was filtered using syringe and cellulose membrane filter. To 600 μl of the obtained protoporphyrinogen IX solution, approximately 300 μl of 2M MOPS [3-(N-morpholino) propanesulfonic acid] was added to adjust pH to 8.0. To determine the enzyme activity of PPO protein, a reaction mixture was prepared with the following composition (based on 10 ml): 50 mM Tris-Cl (pH 8.0); 50 mM NaCl; 0.04% (v/v) Tween 20; 40 mM glucose (0.072 g); 5 units glucose oxidase (16.6 mg); and 10 units catalase (1 μl).
Hundred and eighty microliters of a reaction mixture […] were placed in 96 well plates and 20 μl of purified PPO proteins were added. After 50 μl of the mineral oil was layered, the reaction was initiated by adding the substrate, protoporphyrinogen IX solution, to a final concentration of 50 μM. The reaction proceeded at room temperature for 30 min and the fluorescence of protoporphyrin IX was measured using Microplate reader (Sense, Hidex) (excitation: 405 nm; emission: 633 nm). To calculate the PPO enzyme activity, the protoporphyrinogen IX solution was kept open in the air overnight to oxidize the solution. To this, 2.7 N HCl was added, and the absorbance at 408 nm was measured. A standard curve was generated using standard protoporphyrin IX, and PPO activity was measured by calibration of protoporphyrin IX using the standard curve of protoporphyrin IX.
Activities of variants were presented relatively compared to that of wild type.

Molecule	Activity (%)
B10	78
B11	85
B12	59
B13	86
B14	89
B15	11

The molecules below were run on MxPPO (assay: PPO enzyme activity of purified MBP-fused MxPPO wild type and variants). Settings: PPO enzyme activity of purified MxPPO protein, relative to wild type.
Assay type: biochemical, Myxococcus xanthus

Molecule	Activity (%)
B1	52
B2	34
B3	12
B4	37
B5	17
B6	31
B7	8
B8	18
B9	20
